According to US10808017B2, “Ubiquitin variants and uses therof as 53BP1 inhibitors” (The Governing Council of the University of Toronto, priority 2016, dated 2020):
“Also recorded” adds a separate entry of the source.

What was measured:
[1] = test system: BFP transgene in 293T cells; assay: ssODN-based BFP-to-GFP HR assay; format: cell-based; details: AAV-DJ transduced 293T cells, Cas9 RNP, 4 d, versus i53-DM
Text: FIG. 11. 53BP1 inhibition by i53 stimulates ssODN-mediated homologous recombination. FIG. 11A, Schematic of the BFP-to-GFP conversion assay. Cells carrying a stably integrated BFP transgene are transfected with Cas9 ribonucleoproteins (RNPs) programmed with a gRNA against the BFP coding sequence along with an ssODN that converts 3 nucleotides of BFP into those that produce a GFP protein upon successful HR-mediated repair. FIG. 11B-C, 293T cells that were first transduced with AAV-DJ1 vectors coding for i53-DM or i53 with the BFP transgene were nucleofected with Cas9 RNPs and optimal (b) and suboptimal (c) ssODN repair donors that convert BFP to GFP. 4 d after nucleofection, GFP fluorescence was monitored by flow cytometry. […] 3 d post-nucleofection, genomic DNA was isolated and the presence of the Pcil restriction fragment length polymorphism (RFLP) was determined by restriction digest on PCR-amplified genomic DNA. […]
The BFP-to-GFP assay was performed essentially as described Richardson CD et al, Nat Biotechnol. […] After 4 days, BFP and GFP fluorescence were measured by flow cytometry on a BD Fortessa, and analyzed with FlowJo v10 software. […]

[2] = test system: gene conversion (HR) in U2OS DR-GFP cells; assay: Direct-repeat (DR)-GFP gene conversion assay; format: cell-based, human
Description: FIG. 4. Activation of HR by i53. FIG. 4A, Schematic of the DR-GFP assay. FIG. 4B. U2OS DR-GFP cells were transfected with the vectors expressing i53, the DM mutant or an empty vector control (EV) along with an I-Scel expression vector. The percentage of GFP-positive cells was determined 48 h post-transfection for each condition and was normalized to the empty vector condition (mean±s.d., N=4). FIG. 4C, U2OS DR-GFP were first transfected with siRNAs targeting the 53BP1 or BRCA1 mRNAs along with a non-targeting siRNA (CTRL). 24 h post-transfection, cells were transfected with the I-SceI expression vector and the percentage of GFP-positive cells was determined 48 h post-siRNA transfection for each condition. The values were normalized to the empty vector condition and presented as the mean±s.e.m; N=4. FIG. 4D, Schematic of the gene targeting assay. FIG. 4E, Gene targeting efficiency at the LMNA locus in parental or 53BP1Δ U2OS cells following transfection with vectors expressing Flag-tagged i53 or its DM mutant or an empty vector control (EV). The DNA-PK inhibitor NU7441 was also added where indicated. 24 h post-transfection, cells were analysed for mClover fluorescence. Individual experiments are presented with the error bar representing the s.d., (N=3). FIG. 4F, Gene targeting at the LMNA locus in G 1-arrested parental (WT) or 53BP1Δ U2OS cells transfected with vectors expressing Flag-tagged i53 or its DM mutant or an empty vector control (EV). The DNA-PK inhibitor NU7441 was also added in the indicated conditions. 24 h post-transfection, cells were analysed for mClover fluorescence. Individual experiments are present with the error bar representing the s.d., (N=3).
The direct repeat (DR)-GFP assay to measure the frequency of HR and the strand annealing EJ2-GFP assay to measure the frequency of MMEJ were performed as previously described. Briefly, U2OS DR-GFP or U2OS EJ2-GFP cells were transfected with 10 nM siRNA (Dharmacon) using Lipofectamine RNAiMAX (Invitrogen). 24 h later, the cells were transfected with the pCBASceI plasmid (Addgene #26477) and plasmids, using Lipofectamine 2000 (Invitrogen). 48 h post-plasmid transfection, the cells were trypsinized and the percentage of GFP-expressing cells was analyzed using the BD FACSCalibur flow cytometer.
AAV-293 cells (Agilent) were transfected with pAAV expression, pDJ and pHelper constructs (Cell Biolabs, Inc., USA) in equal amounts using PEI to produce AAV-DJ expression viruses. 48-72 h later, the viral supernatant was used to transduce target cells for 24 h, and assays were initiated a further 24 h later.

Substance: i53: UbvG08 with C-terminal di-glycine removed and I44A mutation; genetically encoded inhibitor of 53BP1
- Stimulation of HDR by ssODNs, BFP-to-GFP conversion [1]: 1.3-1.4 fold
- Homologous recombination in DR-GFP gene conversion assay after AAV-mediated delivery ([2]; AAV-DJ delivery, versus Flag-i53-DM): stimulate homologous recombination
- Gene conversion in DR-GFP assay (comparison in words) ([2]; SCR7 at 1 μM, i53 by plasmid expression): more potent inducer of gene conversion; also recorded: stimulated gene conversion more than 53BP1 depletion by siRNA
